# B1: DNA-binding protein inhibitor ID-2 (Mus musculus), P41136 (parent)
# chain: MKAFSPVRSVRKNSLSDHSLGISRSKTPVDDPMSLLYNMNDCYSKLKELVPSIPQNKKVTKMEILQHVIDYILDLQIALDSHPTIVSLHHQRPGQNQASRTPLTTLNTDISILSLQASEFPSELMSNDSKVLCG
# B2: Myoblast determination protein 1 (Mus musculus), P10085 (parent)
# chain: MELLSPPLRDIDLTGPDGSLCSFETADDFYDDPCFDSPDLRFFEDLDPRLVHMGALLKPEEHAHFPTAVHPGPGAREDEHVRAPSGHHQAGRCLLWACKACKRKTTNADRRKAATMRERRRLSKVNEAFETLKRCTSSNPNQRLPKVEILRNAIRYIEGLQALLRDQDAAPPGAAAFYAPGPLPPGRGSEHYSGDSDASSPRSNCSDGMMDYSGPPSGPRRQNGYDTAYYSEAARESRPGKSAAVSSLDCLSSIVERISTDSPAAPALLLADAPPESPPGPPEGASLSDTEQGTQTPSPDAAPQCPAGSNPNAIYQVL
# partner: B1 chain
# Variants of: B1
# Settings: with myod1_mouse Myod1, P10085
row,Variant,effect of a mutation on the interaction
1,V86K,decreasing interaction
2,L124K,decreasing interaction

# Variants of: B2
# Settings: with id2_mouse Id2, P41136
row,Variant,effect of a mutation on the interaction
1,I157K,disrupting interaction
2,I149K,disrupting interaction
3,L160K,decreasing interaction
4,Q161K,decreasing interaction
5,L150K,decreasing interaction

# Reference: IntAct's records for PubMed 21209940
